We go through five molecules from patent publication US20220153832A1 (PIONYR IMMUNOTHERAPEUTICS, published 2022).

For test [1], the target named is T1, human MARCO (R&D biosystems), recombinant, coated in the LDL competition assay (human, UniProt Q9UEW3 70-520, limits assumed).
T1 construct: Bought protein
T1 sequence (looked up): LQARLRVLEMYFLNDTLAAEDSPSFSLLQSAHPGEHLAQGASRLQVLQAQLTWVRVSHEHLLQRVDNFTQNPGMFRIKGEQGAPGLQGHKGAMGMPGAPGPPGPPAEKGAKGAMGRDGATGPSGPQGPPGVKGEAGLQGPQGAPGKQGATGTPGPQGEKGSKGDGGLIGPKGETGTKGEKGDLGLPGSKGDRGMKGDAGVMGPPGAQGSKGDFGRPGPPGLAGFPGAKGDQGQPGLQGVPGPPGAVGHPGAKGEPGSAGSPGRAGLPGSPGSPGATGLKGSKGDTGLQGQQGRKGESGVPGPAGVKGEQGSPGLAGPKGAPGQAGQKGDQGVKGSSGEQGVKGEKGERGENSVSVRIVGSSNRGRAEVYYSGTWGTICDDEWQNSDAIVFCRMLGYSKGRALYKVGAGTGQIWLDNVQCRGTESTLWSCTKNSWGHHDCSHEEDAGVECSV
Briefly: LDL competition on coated human MARCO (MSD), competitor biotinylated hLDL. How it is done: A high-binding, 96-well MSD plate was coated with 4 μg/ml mouse MARCO or 4 μg/ml human MARCO (R&D biosystems). After the plate was blocked with PBST and 5% BSA for an hour, titrated anti-mouse or anti-human MARCO antibodies were added to the plate and incubated for 30 minutes. Biotinylated hLDL (860 pM or 2 μg/ml) were added to the antibody, and the antibody/LDL mixture was incubated for an hour to allow the mixture to reach binding equilibrium. The plates were washed and bound biotinylated LDL was detected with Sulfo-tagged streptavidin that generates an electrocheminlumenscent signal when read buffer is added and electricity is applied to the electrodes in the MSD plate. IC50's were calculated using a 4-parameter curve fit in GraphPad Prism software.

For test [2], the target named is T2, Human Macrophage Receptor with Collagenous Structure (MARCO), full length, on cells (human, UniProt Q9UEW3 1-520).
T2 construct: the cell type is named under assay; also called huMARCO; HuMARCO
T2 sequence: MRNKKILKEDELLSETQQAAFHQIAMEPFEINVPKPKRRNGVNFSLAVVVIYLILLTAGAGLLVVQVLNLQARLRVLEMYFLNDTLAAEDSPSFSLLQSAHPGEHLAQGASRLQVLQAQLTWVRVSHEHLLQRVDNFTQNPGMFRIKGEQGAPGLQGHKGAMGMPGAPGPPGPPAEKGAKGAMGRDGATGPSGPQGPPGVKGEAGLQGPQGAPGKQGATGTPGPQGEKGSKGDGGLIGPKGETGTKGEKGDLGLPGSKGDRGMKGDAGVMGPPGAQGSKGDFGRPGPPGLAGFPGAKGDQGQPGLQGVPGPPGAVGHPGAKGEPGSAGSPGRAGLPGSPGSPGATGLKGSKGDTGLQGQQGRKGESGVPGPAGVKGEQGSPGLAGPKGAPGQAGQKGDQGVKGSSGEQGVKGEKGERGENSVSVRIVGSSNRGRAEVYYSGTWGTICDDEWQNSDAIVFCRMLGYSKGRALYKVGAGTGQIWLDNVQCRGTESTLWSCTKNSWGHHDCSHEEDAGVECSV
Briefly: competition with AF488 E. coli binding to 293T cells expressing MARCO, flow cytometry. As for the experimental part:
Zombie NIR viability dye (BioLegend) was prepared by diluting the stock 1000-fold in D-PBS and added to the cells. The cells were incubated with the dye for 10 min at RT in the dark. The reaction was quenched by adding 1 m of 4× Staining buffer (2% FBS in DBPS containing Ca²⁺), followed by centrifugation at 400×g for 5 min at 4° C. Cells were then plated in V-shaped 96 well plates at a density of 100,000 cells. A488-fluorescently labeled bacteria (E. coli from Invitrogen) was added at 10 μg/ml with the anti-human or anti-mouse antibodies of interest for a 30 min incubation at 37 C. Plates were then washed twice followed by resuspension in 100 ul of staining buffer for acquisition on the flow cytometer (Attune NxT, Life Technologies). Flow cytometry data were analyzed using FlowJo software (version 10.6.1) and data were processed and further analyzed in Microsoft Excel and GraphPad Prism software (version 8).
The newly generated rat hybridoma anti-human MARCO antibodies were characterized as previously described. Neither antibody bound to MSR1. Binding kinetics were determined via Multi Cycle Kinetics analysis using the huMARCO antigen as previously described.
(A flow cytometer gives signals particle by particle.)

Test [3] deals with T2, Human Macrophage Receptor with …. Briefly: flow cytometry, 293T HuMARCO cells. Summed up:
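HEK293T cells expressing human or cynomolgus MARCO were tested for antibody binding by flow cytometry. At 100,000 cells/well, Zombie NIR-stained cells received an 8-point three-fold dilution of antibody from 100 nM in D-PBS/2% FBS/2 mM EDTA for 1 hr on ice, then APC goat anti-mouse IgG for 30 min on ice. Geometric mean fluorescence intensities were analysed in FlowJo and Prism.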

In test [4] the target is T3, N-terminally polyhistidine tagged human MARCO ECD (147-520), recombinant (human, UniProt Q9UEW3 147-520).
T3 construct: also called PI-RG-3000; recombinant human MARCO; not shown: N-terminal polyhistidine tag
T3 sequence: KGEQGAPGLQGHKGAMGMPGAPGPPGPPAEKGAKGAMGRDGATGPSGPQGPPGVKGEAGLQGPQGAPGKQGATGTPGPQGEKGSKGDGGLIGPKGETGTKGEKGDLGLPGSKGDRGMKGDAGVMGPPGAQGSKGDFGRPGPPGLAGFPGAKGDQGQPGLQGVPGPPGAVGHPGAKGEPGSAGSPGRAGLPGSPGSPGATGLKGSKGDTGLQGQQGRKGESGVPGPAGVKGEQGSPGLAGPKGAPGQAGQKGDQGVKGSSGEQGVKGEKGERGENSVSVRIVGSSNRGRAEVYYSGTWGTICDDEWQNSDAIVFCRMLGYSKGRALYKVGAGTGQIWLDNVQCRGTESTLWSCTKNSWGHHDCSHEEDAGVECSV
Briefly: label-free kinetics (ProbeLife Gator), mAb captured, human MARCO. As for the experimental part: The kinetics assay used either anti-mouse Fc or anti-human Fc probes to capture the anti-MARCO antibodies onto the probe, and then a five-step kinetic protocol was used to measure the affinity of the antibodies to the antigen, including the following steps: baseline, loading, baseline, association, and dissociation. The kinetics buffer (K buffer) provided by ProbeLife was used to establish the baseline for 60 seconds, and then the anti-mFc or anti-hFc probes were loaded with 200 nM of the antibodies for 120s until the capture reached saturation, measurement of the baseline in K buffer was performed for another 60s, followed by the association step using 200 nM antigen (human MARCO, mouse MARCO or cyno MARCO), and the dissociation step performed in K buffer for 5-10 minutes. The assay was done at 37° C. to maximize antibody:antigen dissociation.
Kinetics and epitope binning analysis of the newly generated anti-human MARCO antibodies was performed as described in Example 3.

B1: PI-HX-3061 (antibody, rat IgG2a)
heavy: EVQLVESGGGLVQPGSSLKLSCVASKFTFSNYGMNWIRQAPKKGLEWIALIYYNSNNKYYADSVKGRFTISRDNSKNTLYLEMNSLRSEDTAMYYCAKSLTGGSDYFDSWGQGVMVTVSSAETTAPSVYPLAPGTALKSNSMVTLGCLVKGYFPEPVTVTWNSGALSSGVHTFPAVLQSGLYTLTSSVTVPSSTWPSQTVTCNVAHPASSTKVDKKIVPRNCGGDCKPCICTGSEVSSVFIFPPKPKDVLTITLTPKVTCVVVDISQDDPEVHFSWFVDDVEVHTAQTRPPEEQFNSTFRSVSELPILHQDWLNGRTFRCKVTSAAFPSPIEKTISKPEGRTQVPHVYTMSPTKEEMTQNEVSITCMVKGFYPPDIYVEWQMNGQPQENYKNTPPTMDTDGSYFLYSKLNVKKEKWQQGNTFTCSVLHEGLHNHHTEKSLSHSP
light: DVQMTQSPSYLAASPGESVSISCKASKSIGTFLAWYQEKPEKTNKLLIYSGSTLQSGTPSRFSGSGSGTDFTLTIRNLEPEDFAVYYCQQHDEYPFTFGSGTKLEIKRADAAPTVSIFPPSTEQLATGGASVVCLMNNFYPRDISVKWKIDGTERRDGVLDSVTDQDSKDSTYSMSSTLSLTKADYESHNLYTCEVVHKTSSSPVVKSFNRNEC
notes: Parental rat hybridoma, rat IgG2a; cross reactive with human and mouse MARCO
Take B1: the half-maximal effective concentration (EC50) in test [1] turned out to be 8.2 nM; in test [2] it was 0.52 nM.

B2: PI-HX-3021 (antibody, V domains shown)
VH: QVRLVQSGTALVRPGASVRMSCTASGYSFTDYWVSWVKQSHGQSLEWIGEIYPNSGTTNFNEKFEGKATLTVDKSTSTAYMELSRLTSEDSAIYYCTGEGTFDYWGQGVMVTVSS
VL: EIVLTQSPTTMAASPGEKVTITCRPSSSLSNMHWFQQKSGTSPKPWIYDTSKLASGVPDRFSGSGSGTSYSLTISSMEAEDAATYYCLQRSSYPPTFGAGTKLELK
notes: Rat IgG2a hybridoma antibody; Not the effector dead PI-3021; also called PI-3007 (name of the recombinant form)
Consider B2, for which the binding result in test [3] was “no binding”.

B3: PI-HX-3016 (antibody, rat IgG1, V domains shown)
VH: EVQLVESGGGLVKPGASLKLSCVASGFTFSDDWMNWVRQTPGKAMEWIGDIKYDGSYTNYVPSLKNRLTISRDNAKNTLYLQMTNVRSEDTATYYCTSGGVFDYWGQGVMVTVSS
VL: EIVLSQSPTTMAASPGEKVTITCRASSSVSYMHWFQQKSGTSPKPWIYDTSKLASGVPDRFSGSGSGTSYSLTISSMEAEDAATYYCLQRSGYPPTFGAGTKLEVK
notes: Rat IgG1 hybridoma antibody
For the molecule B3, the binding result in test [3] was “no binding”.

B4: PI-HX-3031 (antibody)
heavy: QVQLKESGPGLVQPSQTLSLTCTVSGFSLTSYHVSWVRQPPGKGLEWMGAIWTGGSIAYNSLLKSRLSISRDTSKSQVFLKMNSLQTEDTATYYCARDLSDYYSSYTSFDYWGQGVMVTVSTAETTAPSVYPLAPGTALKSNSMVTLGCLVKGYFPEPVTVTWNSGALSSGVHTFPAVLQSGLYTLTSSVTVPSSTWSSQAVTCNVAHPASSTKVDKKIVPRECNPCGCTGSEVSSVFIFPPKTKDVLTITLTPKVTCVVVDISQNDPEVRFSWFIDDVEVHTAQTHAPEKQSNSTLRSVSELPIVHRDWLNGKTFKCKVNSGAFPAPIEKSISKPEGTPRGPQVYTMAPPKEEMTQSQVSITCMVKGFYPPDIYTEWKMNGQPQENYKNTPPTMDTDGSYFLYSKLNVKKETWQQGNTFTCSVLHEGLHNHHTEKSLSHSP
light: DIQMTQSPASLSTSLGETVSIECLASEGISNDLAWYQQKSGKSPQLLIYAASRLQDGVPSRFSGSGSGTRYSLKISGMQPEDEADYFCQQSYKYPLTFGSGTKLEIKRADAAPTVSIFPPSTEQLATGGASVVCLMNNFYPRDISVKWKIDGTERRDGVLDSVTDQDSKDSTYSMSSTLSLTKADYESHNLYTCEVVHKTSSSPVVKSFNRNEC
notes: Parental rat hybridoma, rat IgG2a
With B4, in test [4], the koff amounted to 0.000798 s⁻¹ and the kon came to 443000 M⁻¹ s⁻¹. This molecule also registered an EC50 in test [2] of 0.18 nM.

B5: PI-HX-3043 (antibody, rat IgG2a)
heavy: QVNLLQSRAALVKPGASVKLSCKASGYTFTDYYLHWVKQSHAKSLEWIGYINPNNAYTSYNEKFKSKATLTVDKSTNTAYMELSRLTSADSATYYCARDTTDYYNLHFAYWGQGTLVTVSSAETTAPSVYPLAPGTALKSNSMVTLGCLVKGYFPEPVTVTWNSGALSSGVHTFPAVLQSGLYTLTSSVTVPSSTWSSQAVTCNVAHPASSTKVDKKIVPRECNPCGCTGSEVSSVFIFPPKTKDVLTITLTPKVTCVVVDISQNDPEVRFSWFIDDVEVHTAQTHAPEKQSNSTLRSVSELPIVHRDWLNGKTFKCKVNSGAFPAPIEKSISKPEGTPRGPQVYTMAPPKEEMTQSQVSITCMVKGFYPPDIYTEWKMNGQPQENYKNTPPTMDTDGSYFLYSKLNVKKETWQQGNTFTCSVLHEGLHNHHTEKSLSHSP
light: DIQMTQSPASLSASLGETVSIECLTSEGISNDLAWYQQKSGKSPQLLIYDASRLEDGVPSRFSGSGSGTRYSLKISGMQTEDEADYFCQQSYKYPLTFGSGTKLEIKRADAAPTVSIFPPSTEQLATGGASVVCLMNNFYPRDISVKWKIDGTERRDGVLDSVTDQDSKDSTYSMSSTLSLTKADYESHNLYTCEVVHKTSSSPVVKSFNRNEC
notes: as for B4
In the case of B5, in test [4], the koff was 0.000849 s⁻¹ and the kon came to 233000 M⁻¹ s⁻¹. In test [1], the EC50 is 3.4 nM.

Broadly, the EC50 is the concentration at which the effect is half-maximal. As usually defined, the koff is the first-order rate constant of dissociation. The kon is the second-order rate constant of association.
